In article PMC4017264 (Molecular Cell, 2014):
Positions count from the first letter of the chain named. In names and notes the source's numbering stands. Non-standard residues stand in square brackets, D forms with d. No end group written: not given here. *: point of attachment. FITC = O=C1OC2(c3ccc(O)cc3Oc3cc(O)ccc32)c2ccc(NC(=S)*)cc21; pY = N[C@@H](Cc1ccc(OP(=O)(O)O)cc1)C(=O)O; Ahx = NCCCCCC(=O)O

T1: HOIP PUB domain (HOIP 1-184) (Homo sapiens, UniProt Q96EP0)
T1 construct: PUB domains from HOIP (aa 1–184, red); His6 (3C-cleavable, pOPINB) (N, cleaved yes); made in house; host or cells: E. coli Rosetta2 (DE3) pLacI
T1 sequence (Q96EP0 1-184): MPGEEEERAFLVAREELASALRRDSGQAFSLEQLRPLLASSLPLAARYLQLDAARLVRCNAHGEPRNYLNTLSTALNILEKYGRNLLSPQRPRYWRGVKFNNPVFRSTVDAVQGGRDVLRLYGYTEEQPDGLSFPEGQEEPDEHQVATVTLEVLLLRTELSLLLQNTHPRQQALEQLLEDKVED

B1: N-terminal 185 amino acids (aa) spanning the PUB domain of HOIP: HOIP truncation (protein, UniProt Q96EP0 1-185, looked up, fragment)
chain: MPGEEEERAFLVAREELASALRRDSGQAFSLEQLRPLLASSLPLAARYLQLDAARLVRCNAHGEPRNYLNTLSTALNILEKYGRNLLSPQRPRYWRGVKFNNPVFRSTVDAVQGGRDVLRLYGYTEEQPDGLSFPEGQEEPDEHQVATVTLEVLLLRTELSLLLQNTHPRQQALEQLLEDKVEDD
B2: HOIL-1: epitope-tagged HOIL-1, LUBAC component (protein)
chain: MDEKTKKAEEMALSLTRAVAGGDEQVAMKCAIWLAEQRVPLSVQLKPEVSPTQDIRLWVSVEDAQMHTVTIWLTVRPDMTVASLKDMVFLDYGFPPVLQQWVIGQRLARDQETLHSHGVRQNGDSAYLYLLSARNTSLNPQELQRERQLRMLEDLGFKDLTLQPRGPLEPGPPKPGVPQEPGRGQPDAVPEPPPVGWQCPGCTFINKPTRPGCEMCCRARPEAYQVPASYQPDEEERARLAGEEEALRQYQQRKQQQQEGNYLQHVQLDQRSLVLNTEPAECPVCYSVLAPGEAVVLRECLHTFCRECLQGTIRNSQEAEVSCPFIDNTYSCSGKLLEREIKALLTPEDYQRFLDLGISIAENRSAFSYHCKTPDCKGWCFFEDDVNEFTCPVCFHVNCLLCKAIHEQMNCKEYQEDLALRAQNDVAARQTTEMLKVMLQQGEAMRCPQCQIVVQKKDGCDWIRCTVCHTEICWVTKGPRWGPGGPGDTSGGCRCRVNGIPCHPSCQNCH
B3: aa 1–436: HOIP construct aa 1–436, also including B box and NZF domains (protein, UniProt Q96EP0 1-436, looked up, fragment)
chain: MPGEEEERAFLVAREELASALRRDSGQAFSLEQLRPLLASSLPLAARYLQLDAARLVRCNAHGEPRNYLNTLSTALNILEKYGRNLLSPQRPRYWRGVKFNNPVFRSTVDAVQGGRDVLRLYGYTEEQPDGLSFPEGQEEPDEHQVATVTLEVLLLRTELSLLLQNTHPRQQALEQLLEDKVEDDMLQLSEFDPLLREIAPGPLTTPSVPGSTPGPCFLCGSAPGTLHCPSCKQALCPACDHLFHGHPSRAHHLRQTLPGVLQGTHLSPSLPASAQPRPQSTSLLALGDSSLSSPNPASAHLPWHCAACAMLNEPWAVLCVACDRPRGCKGLGLGTEGPQGTGGLEPDLARGRWACQSCTFENEAAAVLCSICERPRLAQPPSLVVDSRDAGICLQPLQQGDALLASAQSQVWYCIHCTFCNSSPGWVCVMCNRTS
B4: HOIP: epitope-tagged HOIP, LUBAC E3 ligase component (protein, UniProt Q96EP0 1-1072, looked up)
E3 ubiquitin-protein ligase …: MPGEEEERAFLVAREELASALRRDSGQAFSLEQLRPLLASSLPLAARYLQLDAARLVRCNAHGEPRNYLNTLSTALNILEKYGRNLLSPQRPRYWRGVKFNNPVFRSTVDAVQGGRDVLRLYGYTEEQPDGLSFPEGQEEPDEHQVATVTLEVLLLRTELSLLLQNTHPRQQALEQLLEDKVEDDMLQLSEFDPLLREIAPGPLTTPSVPGSTPGPCFLCGSAPGTLHCPSCKQALCPACDHLFHGHPSRAHHLRQTLPGVLQGTHLSPSLPASAQPRPQSTSLLALGDSSLSSPNPASAHLPWHCAACAMLNEPWAVLCVACDRPRGCKGLGLGTEGPQGTGGLEPDLARGRWACQSCTFENEAAAVLCSICERPRLAQPPSLVVDSRDAGICLQPLQQGDALLASAQSQVWYCIHCTFCNSSPGWVCVMCNRTSSPIPAQHAPRPYASSLEKGPPKPGPPRRLSAPLPSSCGDPEKQRQDKMREEGLQLVSMIREGEAAGACPEEIFSALQYSGTEVPLQWLRSELPYVLEMVAELAGQQDPGLGAFSCQEARRAWLDRHGNLDEAVEECVRTRRRKVQELQSLGFGPEEGSLQALFQHGGDVSRALTELQRQRLEPFRQRLWDSGPEPTPSWDGPDKQSLVRRLLAVYALPSWGRAELALSLLQETPRNYELGDVVEAVRHSQDRAFLRRLLAQECAVCGWALPHNRMQALTSCECTICPDCFRQHFTIALKEKHITDMVCPACGRPDLTDDTQLLSYFSTLDIQLRESLEPDAYALFHKKLTEGVLMRDPKFLWCAQCSFGFIYEREQLEATCPQCHQTFCVRCKRQWEEQHRGRSCEDFQNWKRMNDPEYQAQGLAMYLQENGIDCPKCKFSYALARGGCMHFHCTQCRHQFCSGCYNAFYAKNKCPEPNCRVKKSLHGHHPRDCLFYLRDWTALRLQKLLQDNNVMFNTEPPAGARAVPGGGCRVIEQKEVPNGLRDEACGKETPAGYAGLCQAHYKEYLVSLINAHSLDPATLYEVEELETATERYLHVRPQPLAGEDPPAYQARLLQKLTEEVPLGQSIPRRRK
modifications: epitope tag
B5: Y82A: V5-tagged HOIP with point mutation Y82A in the PUB binding site (protein)
chain: B4 E3 ubiquitin-protein ligase … with Y82A
modifications: left off: V5, end not stated, kept
B6: Y82F: V5-tagged HOIP with point mutation Y82F in the PUB binding site (protein, UniProt Q96EP0 1-1072, looked up, variant Y82F)
E3 ubiquitin-protein ligase …: B4 E3 ubiquitin-protein ligase … with Y82F
modifications: V5 tag
B7: K99E: V5-tagged HOIP with point mutation K99E in the PUB binding site (protein)
chain: B4 E3 ubiquitin-protein ligase … with K99E
modifications: left off: V5, end not stated, kept
B8: N102D: V5-tagged HOIP with point mutation N102D in the PUB binding site (protein, UniProt Q96EP0 1-1072, looked up, variant N102D)
E3 ubiquitin-protein ligase …: B4 E3 ubiquitin-protein ligase … with N102D
modifications: V5 tag

Molecular target: T1, HOIP PUB domain (HOIP 1-184)
Experiment: fluorescence polarization binding of FITC-Ahx peptides to HOIP PUB domain
Details: not given
Method: Serially diluted PUB domains and HOIP variants were mixed with an equal volume of 100 nM FITC-Ahx-labeled peptides of OTULIN and p97. Fluorescence polarization was recorded on a PheraStar plate reader (BMG LABTECH) and fitted to a one-site binding model with GraphPad Prism 5.
Fluorescence polarization binding assays
10 µl of 100 nM FITC-Ahx peptides of either OTULIN (49-67) or p97 (797-806) were aliquoted into a 384-well low volume plate (Corning). Serial dilutions of HOIP PUB into FP assay buffer (20 mM Tris pH 7.4, 100 mM NaCl, 1 mM DTT) were prepared and 10 µl of this was aliquoted to FITC-Ahx peptide-containing wells. Fluorescence polarization was recorded on a PheraStar plate reader (BMG Labtech) using an optics module with $ex = 485 nm and $em = 520 nm. To derive binding constants (KD), polarization values were fitted to a one-site binding model using Graphpad Prism 5. […]

Molecule	binding to HOIP PUB domain (in words)
Y56A: fluorescently labeled OTULIN peptide (aa 49–67) with point mutation Y56A ({FITC-Ahx}-AEHEEDMARAADEIEKEKE; UniProt Q96BN8 49-67, looked up, variant Y56A)	abrogated binding
FITC-Ahx-OTULIN 49-63 pY56: Tyr56-phosphorylated FITC-Ahx-labeled OTULIN peptide (legend: 49–67) ({FITC-Ahx}-AEHEEDM[pY]RAADEIEKEKE)	unable to bind HOIP

Same assay, conditions: OTULIN peptide point mutants

Molecule	reduction of HOIP binding versus wild-type OTULIN peptide
D54A: fluorescently labeled OTULIN peptide (aa 49–67) with point mutation D54A ({FITC-Ahx}-AEHEEAMYRAADEIEKEKE)	60 fold
Y56W: fluorescently labeled OTULIN peptide (aa 49–67) with point mutation Y56W ({FITC-Ahx}-AEHEEDMWRAADEIEKEKE)	100 fold

Test system: endogenous OTULIN
Experiment: coimmunoprecipitation of endogenous OTULIN with tagged HOIP/HOIL-1
Type: cell-based
Details: tagged HOIP/HOIL-1 constructs, HEK293T or U2OS/NOD2 cells, western blot
Method: Transfected HEK293T or U2OS and NOD2 cells were lysed in the presence of protease and phosphatase inhibitors. Clarified lysates were incubated overnight with anti-V5 and anti-HA-agarose resin. […]
siOTULIN: […], siMM […]
Immunoprecipitation of HOIP-V5 and HA-OTULIN
HEK293T or U2OS/NOD2 cells were transfected as indicated. The cells were lysed in IP buffer buffer (25 mM HEPES pH 7.4, 150 mM KCl, 2 mM MgCl2, 1 mM EGTA, 0.5% (v/v) Triton X-100) supplemented with 5 mM NEM (Sigma-Aldrich), cOmplete protease inhibitor cocktail (Roche) and PhosSTOP
(Roche). After 30 minutes on ice, the lysates were cleared by centrifugation and incubated overnight at 4 °C with anti-V5-agarose resin or anti-HA-agarose resin. The beads were washed four times in ice-cold IP buffer and the precipitated material was eluted with 0.2 M glycine, pH 2.5. […]

Molecule	coimmunoprecipitation of endogenous OTULIN (in words)
B1	sufficient to coimmunoprecipitate endogenous OTULIN
B2	OTULIN interacts with HOIP but not HOIL-1
B3	OTULIN interaction was increased
B4	copurified endogenous OTULIN
B5	abrogated OTULIN binding
B6	decreased binding
B7	decreased binding
B8	abrogated OTULIN binding

Same assay, conditions: tagged HOIP/HOIL-1 constructs, HEK293T or U2OS/NOD2 cells, western blot; listed as wild-type HOIP

Molecule	coimmunoprecipitation of endogenous OTULIN (in words)
B4	coprecipitated OTULIN
